The record followed here is patent US20150125491A1 (AURIGENE DISCOVERY TECHNOLOGIES, published 2015).

First the molecules themselves.
B1: Compound 12 (peptide)
peptide: IEMSKVQ-OH
modifications: lactam 2-5
B2: Compound 17 (peptide)
peptide: cyclo([Ahx]SETSKSFQ)
B3: Compound 20 (peptide)
peptide: SETSKSFE
modifications: not fully specified; also: cyclic, bridge and C-terminus not given here
B4: Compound 5 (peptide)
peptide: SETSKSI
modifications: not fully specified; also: cyclic, bridge and C-terminus not given here
B5: Compound 1 (peptide)
peptide: SKTSESF-NH2
modifications: lactam 2-5
B6: Compound 2 (peptide)
peptide: SETSKSF-NH2
modifications: lactam 2-5; N-terminus assumed
SMILES: C[C@@H](O)[C@@H]1NC(=O)[C@@H](NC(=O)[C@@H](N)CO)CCC(=O)NCCCC[C@@H](C(=O)N[C@@H](CO)C(=O)N[C@@H](Cc2ccccc2)C(N)=O)NC(=O)[C@H](CO)NC1=O
B7: Compound 7 (peptide)
peptide: SETSKVF
modifications: not fully specified; also: cyclic, bridge and C-terminus not given here
B8: Compound 16 (peptide)
peptide: SETSKSFQ
modifications: not fully specified; also: cyclic, bridge and C-terminus not given here
B9: Compound 15 (peptide)
peptide: cyclo(SNTSESF[Ahx]Q)
SMILES: C[C@@H](O)[C@@H]1NC(=O)[C@H](CC(N)=O)NC(=O)[C@H](CO)NC(=O)[C@H](CCC(N)=O)NC(=O)CCCCCNC(=O)[C@H](Cc2ccccc2)NC(=O)[C@H](CO)NC(=O)[C@H](CCC(=O)O)NC(=O)[C@H](CO)NC1=O
B10: Compound 11 (peptide)
peptide: IEMSKSQ
modifications: not fully specified; also: cyclic, bridge and C-terminus not given here
B11: Compound 4 (peptide)
peptide: EETSKSF
modifications: not fully specified; also: cyclic, bridge and C-terminus not given here
B12: Compound 14 (peptide)
peptide: SNTSESFQ
modifications: cyclised between the N-terminal amino group of Ser and the alpha-carboxyl of the C-terminal Glu, which was attached to Rink amide resin through its gamma-carboxyl (gives Gln)
B13: Compound 6 (peptide)
peptide: IETSKSF
modifications: not fully specified; also: cyclic, bridge and C-terminus not given here

Bridges are numbered along the chain shown (N, C = ends). Where no end group is shown, it is not given here. [ ]: non-standard residue; d: D form. Ahx = NCCCCCC(=O)O

The target in the first assay is PD-L1 expressed on MDA-MB-231 cells (UniProt Q9NZQ7 19-290, limits assumed). The assay is described as follows: cell-based or functional assay.
Chain of PD-L1 expressed on MDA-MB-231 cells (Q9NZQ7 19-290 limits assumed): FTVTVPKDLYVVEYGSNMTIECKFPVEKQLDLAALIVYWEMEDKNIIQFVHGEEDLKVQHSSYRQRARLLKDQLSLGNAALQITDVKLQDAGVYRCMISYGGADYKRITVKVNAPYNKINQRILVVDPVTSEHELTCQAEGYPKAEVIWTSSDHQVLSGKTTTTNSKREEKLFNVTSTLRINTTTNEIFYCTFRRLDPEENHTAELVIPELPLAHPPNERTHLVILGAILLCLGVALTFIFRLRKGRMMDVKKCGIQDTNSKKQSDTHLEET
Consider B1, for which the “% Splenocyte proliferation” value came out at 39% and the Fold induction amounted to 3 fold.

Take B2: the “% Splenocyte proliferation” value turned out to be 42% and the Fold induction was 3.2 fold.

With B3, the “% Splenocyte proliferation” value was 36% and the Fold induction was 2.8 fold.

B4: the “% Splenocyte proliferation” value is 42% and the Fold induction was found to be 3.2 fold.

Take B5: the “% Splenocyte proliferation” value amounted to 60% and the Fold induction was determined as 4.6 fold.

For B6, the “% Splenocyte proliferation” value is 57% and the Fold induction is 4.3 fold.

With B7, the “% Splenocyte proliferation” value stood at 52% and the Fold induction stood at 4 fold.

As to B8, the “% Splenocyte proliferation” value is 36% and the Fold induction was determined as 2.8 fold.

As to B9, the “% Splenocyte proliferation” value turned out to be 53% and the Fold induction came out at 4 fold.

For B10, the “% Splenocyte proliferation” value came out at 54% and the Fold induction was 4.2 fold.

Regarding B11, the “% Splenocyte proliferation” value was 36% and the Fold induction turned out to be 2.8 fold.

Regarding B12, the “% Splenocyte proliferation” value stood at 55% and the Fold induction turned out to be 4.2 fold.

As for B13, the “% Splenocyte proliferation” value came to 55% and the Fold induction stood at 4.2 fold.

In the next assay the target is PD-1 on mouse splenocytes (mouse) (UniProt Q02242). The assay is described as follows: cell-based or functional assay.
Chain of PD-1 on mouse splenocytes (mouse) (Q02242 25-288): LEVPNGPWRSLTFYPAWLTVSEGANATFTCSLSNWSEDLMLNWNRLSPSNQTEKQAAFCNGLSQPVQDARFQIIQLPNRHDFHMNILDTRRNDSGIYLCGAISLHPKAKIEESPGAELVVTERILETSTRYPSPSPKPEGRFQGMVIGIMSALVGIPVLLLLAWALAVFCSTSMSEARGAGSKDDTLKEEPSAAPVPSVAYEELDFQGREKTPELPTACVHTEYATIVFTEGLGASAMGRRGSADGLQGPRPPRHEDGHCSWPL
“PD-L1 expressed on MDA-MB-231 cells (from UniProt Q9NZQ7 19-290) (ligand)” yielded a % Splenocyte proliferation (Background proliferation: Splenocytes+anti-CD3/CD28+PDL or Tumor) of 13%.
